Experimental data taken from US7939631B2, “APO-2 receptor polypeptides” (Genentech, Inc., priority 1997, dated 2011).
Values belong to the compound of their own block, whether it stands above or below them. Square brackets hold non-standard residues; d marks the D form. Peptide text beside a SMILES is read from it. Nle = CCCC[C@H](N)C(=O)O

How the values were obtained:
HeLa cells = type: cell-based, human; conditions: 5 hour
Apo-2L [1] = target: T1, Apo-2L (Homo sapiens, UniProt P50591); experiment: Co-precipitation (immunoprecipitation) assay of Apo-2 ECD-Flag with His-tagged Apo-2L; type: binding; conditions: 293 cell supernatant with Apo-2 ECD-Flag, 5 μg poly-histidine-tagged soluble Apo-2L; FIG. 3
T1 construct: poly-histidine; made in house
Protocol: The samples were subjected to immunoprecipitation using 25 μl anti-Flag conjugated agarose beads (Sigma) or Nickel-conjugated agarose beads (Qiagen). After a 1.5 hour incubation at 4° C., the beads were spun down and washed four times in phosphate buffered saline (PBS). […] The precipitated proteins were released by boiling the beads for 5 minutes in SDS-PAGE buffer, resolved by electrophoresis on 12% polyacrylamide gels, and then detected by immunoblot with anti-Apo-2L or anti-Flag antibody (2 μg/ml) as described in Marsters et al., J. Biol. Chem., (1997).
Target sequence in this assay (P50591 39-281 limits assumed): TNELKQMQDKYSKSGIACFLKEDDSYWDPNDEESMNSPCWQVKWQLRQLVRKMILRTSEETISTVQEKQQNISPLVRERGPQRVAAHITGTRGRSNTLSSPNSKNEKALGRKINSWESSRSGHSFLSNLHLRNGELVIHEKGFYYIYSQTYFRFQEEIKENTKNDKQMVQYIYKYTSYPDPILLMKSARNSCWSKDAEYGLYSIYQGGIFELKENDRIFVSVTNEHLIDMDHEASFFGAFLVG

TNF-alpha = TNF-alpha (Homo sapiens, UniProt P01375); experiment: BIACORE analysis of purified Apo-2 ECD; type: binding
Sequence of TNF-alpha (P01375 77-233 limits assumed): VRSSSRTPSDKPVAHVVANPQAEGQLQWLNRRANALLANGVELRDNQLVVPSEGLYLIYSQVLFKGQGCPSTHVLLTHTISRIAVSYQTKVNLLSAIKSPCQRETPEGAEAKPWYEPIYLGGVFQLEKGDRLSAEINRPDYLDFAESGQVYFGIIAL
Excerpt: (§1) The binding interaction was further analyzed by purifying Apo-2 ECD from the transfected 293 cell supernatants with anti-Flag beads (see Example 2) and then analyzing the samples on a BIACORE™ instrument.

lymphotoxin-alpha = target: T2, lymphotoxin-alpha (Homo sapiens, UniProt P01374); experiment: BIACORE analysis of purified Apo-2 ECD; type: binding
T2 sequence (P01374 35-205): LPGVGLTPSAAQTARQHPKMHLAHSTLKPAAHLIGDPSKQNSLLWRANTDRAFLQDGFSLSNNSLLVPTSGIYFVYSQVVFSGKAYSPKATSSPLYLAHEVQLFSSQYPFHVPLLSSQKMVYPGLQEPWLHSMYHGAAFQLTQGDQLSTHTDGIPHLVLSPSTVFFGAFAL
Excerpt: as §1

Fas/Apo-1 ligand = target: T3, Fas/Apo-1 ligand (Homo sapiens, UniProt P48023); experiment: BIACORE analysis of purified Apo-2 ECD; type: binding
T3 construct: purchased Alexis Biochemicals
T3 sequence (P48023 103-281 limits assumed): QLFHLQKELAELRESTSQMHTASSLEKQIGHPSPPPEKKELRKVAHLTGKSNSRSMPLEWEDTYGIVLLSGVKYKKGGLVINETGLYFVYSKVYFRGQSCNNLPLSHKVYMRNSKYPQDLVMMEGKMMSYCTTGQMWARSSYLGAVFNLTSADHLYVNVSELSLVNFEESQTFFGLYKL
Excerpt: as §1

Apo-2L [2] = target: T1, Apo-2L; experiment: Inhibition of Apo-2L activity by soluble Apo-2 ECD, apoptosis by FACS; type: cell-based; conditions: Apo-2L 0.5 μg/ml pre-incubated 1 hour; Apo-2 ECD 5 μg/ml with anti-Flag antibody 1 μg/ml; FIG. 4D
Protocol: After a 5 hour incubation, the cells were analyzed for apoptosis by FACS (as above) (FIG. 4D).
Target sequence in this assay (P50591 114-281 limits assumed): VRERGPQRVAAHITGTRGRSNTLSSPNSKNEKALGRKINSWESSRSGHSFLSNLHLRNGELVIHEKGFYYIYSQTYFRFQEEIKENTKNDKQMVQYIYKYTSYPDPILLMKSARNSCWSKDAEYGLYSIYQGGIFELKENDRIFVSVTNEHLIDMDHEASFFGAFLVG

[3] = tested on: HeLa cells transfected with Apo-2; type: cell-based, human

Compound: CCCC[C@@H](C=O)NC(=O)[C@H](CC(C)C)NC(=O)[C@H](CC(C)C)NC(C)=O [ALLN, N-acetyl-Leu-Leu-norleucinal] (Ac-Leu-Leu-[Nle]-aldehyde)
- effect on level of Apo-2L-induced apoptosis (HeLa cells): increased the level of Apo-2L-induced apoptosis

- complex formation with Apo-2L by co-precipitation (Apo-2L [1]): can associate with each other
- binding to TNF-alpha (TNF-alpha): not capable of binding
- binding to Fas/Apo-1 ligand (Fas/Apo-1 ligand): not capable of binding
- blocking of Apo-2L action (apoptosis in HeLa cells) (Apo-2L [2]): capable of blocking Apo-2L action
Compound: Apo-2 ECD: Soluble Apo-2 extracellular domain (amino acid residues 1-184 of FIG. 1) fused to a C-terminal Flag epitope tag
- binding to lymphotoxin-alpha (lymphotoxin-alpha): not capable of binding

Compound: DEVD-fmk
- effect on apoptosis induction by Apo-2 [3]: blocked apoptosis induction by Apo-2

Compound: cyclohexamide
- effect on level of Apo-2L-induced apoptosis (HeLa cells): increased the level of Apo-2L-induced apoptosis

Compound: z-VAD-fmk
- effect on apoptosis induction by Apo-2 [3]: blocked apoptosis induction by Apo-2
